Assay [1] addresses DGK_(Cysless), cysless His6-tagged diacylglycerol kinase from Escherichia coli (Escherichia coli). The assay is described as follows: anion exchange chromatography of subunit exchange.
For assay [2], the target named is E5-DGK_(Cysless), cysless His6-tagged diacylglycerol kinase with a pentaglutamate tag (Escherichia coli). As to the kind of experiment: anion exchange chromatography of subunit exchange.

“DGK_(Cysless), cysless His6-tagged diacylglycerol kinase from Escherichia coli (enzyme)”: the half-life of subunit exchange in assay [1] was > 5 weeks.

Turning to “E5-DGK_(Cysless), cysless His6-tagged diacylglycerol kinase with a pentaglutamate tag (enzyme)”, in assay [1], the percent of the expected final subunit exchange after 7 days stood at 10% and the ratio of the mixed peaks to the pure peaks after 7 days is 0.3. Further, the half-life of subunit exchange in assay [2] is > 5 weeks.

These data come from publication PMC3839629.
